Laboratory results: US20240043514A1, “NOVEL METHOD FOR PRODUCING ANTIBODIES” (TSINGHUA UNIVERSITY, priority 2017, published 2024)

Assays:
Format in all cases: cell-based, human
PBMCs = experiment: In vitro immunization (IVI) of PBMCs, antigen-specific IgG/IgM production by ELISA; conditions: for IgG production compared with Basic alone / IgM production compared with Basic alone: FIG. 19; for antigen specificity of antibody production (anti-OVA IgG vs anti-OVA IgM and anti-BSA IgG): basic + OVA, 14 days, FIGS. 20A-20C
Experimental: PBMCs were washed and diluted with PIV culture medium. Cell density was adjusted to 1*10^^7 cells/ml, treateder with 0.25 mM LLME for about 20 min. Discarded supernatant, and re-suspended cell with PIV culture medium. Adjusted cell density to 9*10^^5 cells/ml. […] Cultured the tissue for 7 days at 37° C., 5% CO2. Changed half of the medium and added factor cocktail on day 7. Cultured the cells for 7-21 days at 37° C., 5% CO2. Collected the supernatant on day 7, day 14, or day 21 for analysis of antibody production by ELISA, whereas the pellets are used for testing gene expression by PCR or RT-PCR. The collected cells were also tested in ELISpot assay for FACS analysis.
Exemplary IVI steps with addition of stimulate factors: • 1. Prepared PBMCs and treat them with LLME. • 2. […] Collected the cells and plate them into 96-well plate at a density of 6*10^4/well. • 4. […] The IgG and IgM level was examined with ELISA assay.
After day7 or day14 with addition of cytokines or antibody-enhancing composition and antigens, supernatants were harvested and added to antigen OVA-coated plates. After 2 hr incubation, a HRP-conjugated anti-human IgG or anti-human IgM was added, the amount of antigen-specific antibody was measured using TMB as substrate. The data represents the mean of 2 replicates; error bars represent SD. One representative data of 3 separate experiments is shown.
Plates were coated with antigen at 5 μg/ml overnight at 4° C. and washed them in PBST (containing 0.5% Tween-20). The plates were blocked with 5% BSA before addition of cell culture supernatants and horseradish peroxidase (HRP)-conjugated detection antibodies (dilutions: 1 in 2,500 for HRP-conjugated IgG-specific antibody (Jackson) and HRP-conjugated IgM-specific antibody. TMB substrates solution was used for measurement. […]
To further test effects of other cytokine or molecules on antibody production, a synthesized TLR7/8 agonist (50 nM and 500 nM) was added to the IVI system in the presence of antigen OVA (2 μg/ml).
An exemplary cytokine, IL1β, was tested. PBMCs were incubated in vitro with OVA, basic, and either some of the known stimulating factors ICOS, CD40L, TLR7/8 agonists or IL1β (in different doses) (1.5*10^^5 cell/well, 96 well plate). After 7 or 14 days, supernatants were harvested, and IgG/IgM antibody production was measured by ELISA assay.

[1] = system: AICDA, BLIMP-1, RAG expression; experiment: Quantitative RT-PCR of AICDA, BLIMP-1 and RAG mRNA in immunized PBMCs
Experimental: Quantitative RT-PCR was carried out with a BioRad iCycler and the 2-(ΔΔCT) method was used to calculate relative mRNA expression levels normalized to GAPDH.
AID is known to be involved in B cell affinity maturation by inducing hyper-mutation in antibody genes. Expression of BLIMP-1 represents the proliferation and differentiation of active B cell. To test the effect of TLR agonists on the expression of AID, mRNA levels of AICDA (that encoding AID) after treatment with the synthesized TLR7/8 agonist (500 nM), in comparison with that of CD40L (55 nM), was determined by quantitative RT-PCR. PBMCs were collected from two different donors (see FIG. 8, donor 3 and donor 4). […]
To test the effect of TLR7 agonist imiquimod on the expression of AICDA and BLIMP-1, mRNA levels of AICDA and BLIMP-1 after IVI in the presence of the TLR7 agonist imiquimod (500 nM), was determined by quantitative RT-PCR, in comparison with that of CD40L (FIG. 9). […]
AICDA, RAG gene expression of the harvested cells was also measured by RT-qPCR analysis respectively. […] Data are expressed as means±SEM of triplicate independent samples (****P<0.0001, **P<0.001, by 1-way ANOVA with Sidak's multiple comparisons test).

[2] = system: GC like B cells within PBMCs; experiment: FACS analysis of GC like B cells (CD3-CD19+GL7+Fas+) after in vitro immunization
Experimental: We analyzed stained cells on an […] (BD) and processed flow cytometry data with FlowJo software (Tree Star). PBMCs were collected into Snap-lock microtubes. For analysis of T cells or B cells, tubes were kept at 4° C. unless mentioned otherwise. After centrifugation, cells were washed and resuspended in PBS. For analysis of T follicular helper cells, PBMCs were stained with antibodies of CD3−FITC (BD), CD4− PerCP−Cy™5.5 (BD), CXCR5−PE/Cy7 (Biolegend), and CD45RA-PE(eBioscience), respectively. T follicular helper cells were identified with CD3^+CD4^+CXCR5^+CD45RA^−. For analysis of GC like B-cells, PBMC was stained with antibodies of CD19-PE (eBioscience), GL7− Alexa Fluor 488 (eBioscience), Fas-APC (eBioscience). GC like B-cells were defined as CD19^+GL7^+Fas^+.
After FACS sorting, GC like B cells are gated as CD3^−, CD19^+, GL7^+, Fas^+ cells. Numbers within the gates represent the GC like B cells of different groups. […] The ratio of GC like B cells is about 85.25% (FIG. 5B). Similarly, the PBMCs treated with ICOS. The ratio of GC like B cells is about 90.42% (FIG. 5C).
In the same way, PBMCs were incubated in vitro with OVA, basic, and CCL1 (1 μg/ml). After 7 days, cells were harvested, and single cell is sorting with CD19, CD3, GL7, FAS antibody as specific markers, dead cells are excluded by staining with DAPI. GC like B cells are gated as CD3−CD19+GL7+Fas+ cells. […]

CXCL2: Human C-X-C motif chemokine 2
IgG production compared with Basic alone (PBMCs; in vitro for 14 days, OVA): better than Basic alone

CC(C)Cn1cnc2c(N)nc3ccccc3c21 [imiquimod, reference compound]
expression of AICDA and BLIMP-1 compared with CD40L ([1]; OVA, basic, agonist 500 nM, FIG. 8 and FIG. 9): far superior to CD40L

CXCL5: Human C-X-C motif chemokine 5
IgG production compared with known stimulating factors (PBMCs; CXCL5 20 ng/ml, in vitro for 14 days): inferior to TLR7/8 agonist but better than ICOS and CD40L | antigen specificity of antibody production (anti-OVA IgG vs anti-OVA IgM and anti-BSA IgG) (PBMCs): similarly stimulate the activation of OVA-specific B cells | IgG production, dose relation (PBMCs; in vitro for 14 days, OVA, basic, FIG. 18): dose-dependent

IL21: interleukin-21, cytokine; part of 'basic' medium at 50 ng/ml
production of anti-TrkA antibody IgG / IgM by individual stimulants (PBMCs; antigen TrkA, individual stimulants, day 7, IL21 50 ng/ml): stimulated the production of antibody IgG but not IgM

IL1β: Human interleukin-1 beta, adipose tissue-derived secretory protein
antigen specificity of antibody production (anti-OVA IgG vs anti-OVA IgM and anti-BSA IgG) (PBMCs): promotes generation of anti-OVA IgG in a high level

B1: CXCL16: Mouse chemokine (C-X-C motif) ligand 16 (protein, UniProt Q8BSU2 27-246, looked up)
C-X-C motif chemokine 16: NQGSVAGSCSCDRTISSGTQIPQGTLDHIRKYLKAFHRCPFFIRFQLQSKSVCGGSQDQWVRELVDCFERKECGTGHGKSFHHQKHLPQASTQTPEAAEGTPSDTSTPAHSQSTQHSTLPSGALSLNKEHTQPWEMTTLPSGYGLEARPEAEANEKQQDDRQQEAPGAGASTPAWVPVLSLLAIVFFLTAAMAYVLCNRRATQQNSAGLQLWYTPVEPRP
IgG production compared with Basic alone (PBMCs; in vitro for 14 days, OVA): better than Basic alone | IgM production compared with Basic alone (PBMCs; in vitro for 14 days, OVA): better than Basic alone

B2: CCL8: Human chemokine (C-C motif) ligand 8 (protein, UniProt P80075 24-99, looked up)
C-C motif chemokine 8: QPDSVSIPITCCFNVINRKIPIQRLESYTRITNIQCPKEAVIFKTKRGKEVCADPKERWVRDSMKHLDQIFQNLKP
IgG production compared with known stimulating factors (PBMCs; OVA, basic, FIG. 17): inferior to TLR7/8 agonist but better than ICOS and CD40L | antigen specificity of antibody production (anti-OVA IgG vs anti-OVA IgM and anti-BSA IgG) (PBMCs): similarly stimulate the activation of OVA-specific B cells

B3: CXCL13: Recombinant Human chemokine (C-X-C motif) ligand 13 (protein, UniProt O43927 23-109, looked up)
C-X-C motif chemokine 13: VLEVYYTSLRCRCVQESSVFIPRRFIDRIQILPRGNGCPRKEIIVWKKNKSIVCVDPQAEWIQRMMEVLRKRSSSTLPVPVFKRKIP
IgM production compared with Basic alone (PBMCs; in vitro for 14 days, OVA): better than Basic alone

B4: CCL1: Recombinant Human C-C motif chemokine 1 (protein, UniProt P22362 24-96, looked up)
C-C motif chemokine 1: KSMQVPFSRCCFSFAEQEIPLRAILCYRNTSSICSNEGLIFKLKRGKEACALDTVGWVQRHRKMLRHCPSKRK
antigen-specific antibody production, CCL1 plus TLR7/8 agonists and basic vs TLR7/8 agonists and basic only (PBMCs; R848 1 μg/ml, 7 days, FIG. 25A): significantly increased | GL7+FAS+ cell ratio, CCL1 plus TLR7/8 and basic vs TLR7/8 and basic only ([2]; 7 days, FIG. 25D): increases | AICDA and RAG gene expression, CCL1 plus TLR7/8 and basic vs TLR7/8 and basic only ([1]; 7 days, RT-qPCR, FIGS. 25B-25C): increased expression level of AICDA and RAG genes

B5: CCL4: Recombinant Human C-C motif chemokine 4 (protein, UniProt P13236 24-92, looked up)
C-C motif chemokine 4: APMGSDPPTACCFSYTARKLPRNFVVDYYETSSLCSQPAVVFQTKRSKQVCADPSESWVQEYVYDLELN
IgG production compared with Basic alone (PBMCs; in vitro for 14 days, OVA): better than Basic alone | IgM production compared with Basic alone (PBMCs; in vitro for 14 days, OVA): better than Basic alone

B6: CD40L: CD154, CD40 Ligand protein (protein, UniProt P29965 113-261, looked up)
CD40 ligand, soluble form: MQKGDQNPQIAAHVISEASSKTTSVLQWAEKGYYTMSNNLVTLENGKQLTVKRQGLYYIYAQVTFCSNREASSQAPFIASLCLKSPGRFERILLRAANTHSSAKPCGQQSIHLGGVFELQPGASVFVNVTDPSQVSHGTGFTSFGLLKL
regulation of IgG and IgM responses with dose (PBMCs; ICOS 24-100 nM, CD40L 10-55 nM, TLR7/8 agonist 0.1-500 nM, OVA, IL2, IL21): dose-dependent manner | IgG production on co-stimulation with IL2 and IL21 (PBMCs; OVA 4 ug/ml, IL2 10 ng/ml, IL21 50 ng/ml, 24 nM ICOS, 55 nM CD40L, 500 nM TLR7/8 agonist, 7 or 14 days): synergistic, complimentary effects on enhanced IgG production | ratio of GC like B cells ([2]; antigen OVA 2 μg/ml, IL2 10 ng/ml + IL21 50 ng/ml (basic), sorted on day 14): about 85.25%

B7: IL27: Recombinant Human Interleukin 27 (protein, UniProt Q8NEV9 29-243; Q14213 21-229, looked up)
Interleukin-27 subunit alpha: FPRPPGRPQLSLQELRREFTVSLHLARKLLSEVRGQAHRFAESHLPGVNLYLLPLGEQLPDVSLTFQAWRRLSDPERLCFISTTLQPFHALLGGLGTQGRWTNMERMQLWAMRLDLRDLQRHLRFQVLAAGFNLPEEEEEEEEEEEEERKGLLPGALGSALQGPAQVSWPQLLSTYRLLHSLELVLSRAVRELLLLSKAGHSVWPLGFPTLSPQP
Interleukin-27 subunit beta: RKGPPAALTLPRVQCRASRYPIAVDCSWTLPPAPNSTSPVSFIATYRLGMAARGHSWPCLQQTPTSTSCTITDVQLFSMAPYVLNVTAVHPWGSSSSFVPFITEHIIKPDPPEGVRLSPLAERQLQVQWEPPGSWPFPEIFSLKYWIRYKRQGAARFHRVGPIEATSFILRAVRPRARYYVQVAAQDLTDYGELSDWSLPATATMSLGK
IgG production compared with Basic alone (PBMCs; in vitro for 14 days, OVA): better than Basic alone | IgM production compared with Basic alone (PBMCs; in vitro for 14 days, OVA): better than Basic alone
